Data from article PMC3729259 (The Prostate, 2010).

Target: Gal4-PAX6 fusion protein (human, UniProt P26367 1-422)
Assay: two-hybrid

Chain of Gal4-PAX6 fusion protein (P26367 whole entry, the tested form may be a part): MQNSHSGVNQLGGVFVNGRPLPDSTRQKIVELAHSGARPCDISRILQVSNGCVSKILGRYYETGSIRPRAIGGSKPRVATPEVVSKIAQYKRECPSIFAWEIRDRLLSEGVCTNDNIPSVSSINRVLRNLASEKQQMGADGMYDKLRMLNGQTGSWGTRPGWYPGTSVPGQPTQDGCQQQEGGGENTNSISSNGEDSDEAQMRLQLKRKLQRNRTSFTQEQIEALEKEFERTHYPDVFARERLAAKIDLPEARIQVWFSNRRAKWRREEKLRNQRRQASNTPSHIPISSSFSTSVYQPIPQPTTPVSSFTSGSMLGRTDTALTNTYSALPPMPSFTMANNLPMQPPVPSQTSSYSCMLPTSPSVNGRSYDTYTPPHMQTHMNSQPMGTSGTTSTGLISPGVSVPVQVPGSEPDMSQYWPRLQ

B1: VP16-AR fusion protein (receptor, UniProt P10275 1-920, looked up)
chain: MEVQLGLGRVYPRPPSKTYRGAFQNLFQSVREVIQNPGPRHPEAASAAPPGASLLLLQQQQQQQQQQQQQQQQQQQQQQQETSPRQQQQQQGEDGSPQAHRRGPTGYLVLDEEQQPSQPQSALECHPERGCVPEPGAAVAASKGLPQQLPAPPDEDDSAAPSTLSLLGPTFPGLSSCSADLKDILSEASTMQLLQQQQQEAVSEGSSSGRAREASGAPTSSKDNYLGGTSTISDNAKELCKAVSVSMGLGVEALEHLSPGEQLRGDCMYAPLLGVPPAVRPTPCAPLAECKGSLLDDSAGKSTEDTAEYSPFKGGYTKGLEGESLGCSGSAAAGSSGTLELPSTLSLYKSGALDEAAAYQSRDYYNFPLALAGPPPPPPPPHPHARIKLENPLDYGSAWAAAAAQCRYGDLASLHGAGAAGPGSGSPSAAASSSWHTLFTAEEGQLYGPCGGGGGGGGGGGGGGGGGGGGGGGEAGAVAPYGYTRPPQGLAGQESDFTAPDVWYPGGMVSRVPYPSPTCVKSEMGPWMDSYSGPYGDMRLETARDHVLPIDYYFPPQKTCLICGDEASGCHYGALTCGSCKVFFKRAAEGKQKYLCASRNDCTIDKFRRKNCPSCRLRKCYEAGMTLGARKLKKLGNLKLQEEGEASSTTSPTEETTQKLTVSHIEGYECQPIFLNVLEAIEPGVVCAGHDNNQPDSFAALLSSLNELGERQLVHVVKWAKALPGFRNLHVDDQMAVIQYSWMGLMVFAMGWRSFTNVNSRMLYFAPDLVFNEYRMHKSRMYSQCVRMRHLSQEFGWLQITPQEFLCMKALLLFSIIPVDGLKNQKFFDELRMNYIKELDRIIACKRKNPTSCSRRFYQLTKLLDSVQPIARELHQFTFDLLIKSHMVSVDFPEMMAEIISVQVPKILSGKVKPIYFHTQ
fold luciferase activity (against cells with pGal4 and pVP16): 4 fold
